Numbering of substitutions follows the chain as printed. Entries after “also recorded” stand apart in the source; their conditions may differ.
Legend:
[1] = target: T1, epidermal growth factor receptor (EGFR) on tumor cells (human, UniProt P00533 25-1210); assay: apparent KD, flow cytometry, fluorescent immunoliposomes on MDAMB468 cells, 4 C; 74 scFv/liposome
T1 construct: whole, on cells; Intact EGFR on A431 and MDAMB468 cells (1x10^6-3x10^6 EGFR/cell); also called EGFR-expressing A431 cells; MDAMB468 cells

[2] = target: T1, epidermal growth factor receptor (EGFR) …; assay: apparent KD, flow cytometry, fluorescent immunoliposomes on MDAMB468 cells, 4 C; 148 scFv/liposome
[3] = target: T2, A431 cells expressing EGFR (Homo sapiens, UniProt P00533); assay: scFv affinity for cells expressing EGFR (A431) by flow cytometry; type: binding
T2 construct: Human squamous carcinoma A431 cells expressing EGFR; endogenous in cells; host or cells: A431
Method: Human squamous carcinoma A431 cells expressing EGFR were grown to 80-90% confluence in RPMI medium supplemented with 10% fetal bovine serum and harvested by trypsinization. […] Cell binding was performed at 4° C. in FACS buffer in a volume calculated to ensure fivefold scFv excess and for a duration calculated to ensure that the reaction had reached equilibrium. After two washes with 200 μL of FACS buffer, cell-bound scFv was detected by the addition of 100 μl of 1 μg/ml biotinylated His probe (Santa Cruz Biotech.) and a 1:800 (v/v) dilution of streptavidin-PE (Biosource). After incubation at 4° C. for 30 min, the cells were washed twice and resuspended in PBS containing 4% (v/v) paraformaldehyde. Fluorescence was measured by flow cytometry in a FACS LSRII instrument (Becton Dickinson), and the median fluorescence intensity (MFI) values were fit to the equation:
MFI=MFImin+MFImax([Ab]/(KD+[Ab])
using the software program Kaleidagraph as described previously (Benedict et al. (1997) J. Immunol. Methods, 201: 223-231).

[4] = system: MDAMB453 cells; assay: differential binding of scFv to cell lines by flow cytometry; conditions: 10^4 EGFR/cell
[5] = target: T3, biotinylated EGFR-ECD (Homo sapiens, UniProt P00533); assay: KD of yeast-displayed scFv for biotinylated EGFR-ECD by flow cytometry; type: binding; conditions: concentrations as high as 8 μM
T3 construct: Recombinant EGFR-ECD was expressed in HEK293 cells; made in house; host or cells: HEK293
Method: Generally, six to eight different concentrations of biotinylated EGFR were used to span a range of concentrations from ten times above to ten times below the KD. Incubation volumes, times and yeast numbers were chosen to ensure that the studies were done in at least fivefold antigen excess and that equilibrium had been achieved (Razai et al. (2005) J. Mol. Biol. 351: 158-169). For anti-EGFR scFv, […] in 50 μl were incubated with biotinylated EGFR-ECD for 1 h at room temperature. […] Only yeast displaying scFv (as determined by binding of SV5 mAb) were gated for affinity measurements.

[6] = target: T4, A431 cells (Homo sapiens, UniProt P00533); assay: differential binding of scFv to cell lines by flow cytometry; conditions: 1×10^6−3×10^6 EGFR/cell
T4 construct: endogenous in cells; host or cells: A431

[7] = system: MDAMB468 cells; assay: as above; set-up: species or system human; conditions: 1×10^6−3×10^6 EGFR/cell
[8] = system: NR6 cells; assay: as above; conditions: parental, EGFR negative
[9] = target: T5, EGFR (vIII) stably transfected NR6M cells (Homo sapiens, UniProt P00533, DELINS30-297G); assay: as above
T5 construct: expressed in transfected cells; host or cells: NR6M (NR6 stably transfected with EGFRvIII)

B1: EGFR-targeted immunoliposome constructed from C10 scFv (other)
VH: EVQLVQSGAEVKKPGSSVKVSCKASGGTFSSYAISWVRQAPGQGLEWMGGIIPIFGTANYAQKFQGRVTITADESTSTAYMELSSLRSEDTAVYYCAREEGPYCSSTSCYGAFDIWGQGTLVTVSS
VL: QSVLTQDPAVSVALGQTVKITCQGDSLRSYFASWYQQKPGQAPTLVMYARNDRPAGVPDRFSGSKSGTSASLAISGLQSEDEADYYCAAWDDSLNGYLFGAGTKLTVL
modifications: free cysteine residue at the COOH terminus conjugated to Mal-PEG-DSPE and inserted into the liposome ; The scFv carries a free cysteine at the COOH terminus conjugated to Mal-PEG-DSPE and inserted into a 100-120 nm liposome. It is multivalent, at 12-148 scFv per liposome. None of this can be carried by the letters.
notes: also called C10 ILs; C10 IL; not shown: scFv linker, the C-terminal extension with the free cysteine and tags, and the Mal-PEG-DSPE liposome carrier
B1 was tested, and the Kd [1] was 1.75 nM and the Kd [2] was 0.36 nM.

B2: 2224: P2/2 scFv combined with the VH CDR3 Gly to Ala mutation from P2/4; SEQ ID NO:17 and 24 (protein)
scFv: B1 VL with F31L, M47T
modifications: Synthetic antibody
For B2, the “improvement in affinity compared to C10 scFv” value [3] was 280 fold.

B3: C10: parental (wild-type) internalizing human anti-EGFR scFv from a non-immune phage library; SEQ ID NO:1 (protein)
scFv: B1 VH
modifications: Synthetic antibody
In the case of B3, the “binding to MDAMB453 cells” value [4] is reported as “did not stain”, the “binding of yeast-displayed scFv to biotinylated recombinant EGFR” value [5] is reported as “only minimal binding” and the “binding to A431 cells” value [6] is reported as “stained”. For the same molecule, the “binding to MDAMB468 cells” value [7] was “stained”, the “binding to NR6 cells” value [8] was “minimal binding; also recorded: did not stain” and the “binding to NR6M cells” value [9] was “strong staining; also recorded: stained”.

Reference: US20100008978A1, “NANOPARTICLES EFFECTIVE FOR INTERNALIZATION INTO CELLS” (THE REGENTS OF THE UNIVERSITY OF CALIFORNIA, priority 2008, published 2010)
